{"source": "patent US8748182B2", "about": "“Mutant proteins and methods for producing them” (Heptares Therapeutics Limited, priority 2007, dated 2014)", "molecules": {"B1": {"name": "1116A: NTR point mutant (Ile 116) (protein, UniProt P20789 1-424, looked up, variant I116A)", "Neurotensin receptor type 1": "MHLNSSVPQGTPGEPDAQPFSGPQSEMEATFLALSLSNGSGNTSESDTAGPNSDLDVNTDIYSKVLVTAIYLALFVVGTVGNSVTAFTLARKKSLQSLQSTVHYHLGSLALSDLLALLLAMPVELYNFIWVHHPWAFGDAGCRGYYFLRDACTYATALNVASLSVERYLAICHPFKAKTLMSRSRTKKFISAIWLASALLAIPMLFTMGLQNRSGDGTHPGGLVCTPIVDTATVKVVIQVNTFMSFLFPMLVISILNTVIANKLTVMVHQAAEQGRVCTVGTHNGLEHSTFNMTIEPGRVQALRHGVLVLRAVVIAFVVCWLPYHVRRLMFCYISDEQWTTFLFDFYHYFYMLTNALFYVSSAINPILYNLVSANFRQVFLSTLACLCPGWRHRRKKRPTFSRKPNSMSSNHAFSTSATRETLY"}, "B2": {"name": "H103A: NTR point mutant (protein, UniProt P20789 1-424, looked up, variant H103A)", "Neurotensin receptor type 1": "B1 Neurotensin receptor type 1 with H103A, A116I"}, "B3": {"name": "F358A: NTR point mutant (protein, UniProt P20789 1-424, looked up, variant F358A)", "Neurotensin receptor type 1": "B1 Neurotensin receptor type 1 with A116I, F358A"}, "B4": {"name": "M181A: NTR point mutant (protein, UniProt P20789 1-424, looked up, variant M181A)", "Neurotensin receptor type 1": "B1 Neurotensin receptor type 1 with A116I, M181A"}, "B5": {"name": "D113A: NTR point mutant (protein, UniProt P20789 1-424, looked up, variant D113A)", "Neurotensin receptor type 1": "B1 Neurotensin receptor type 1 with D113A, A116I"}, "B6": {"name": "W391A: NTR point mutant (protein, UniProt P20789 1-424, looked up, variant W391A)", "Neurotensin receptor type 1": "B1 Neurotensin receptor type 1 with A116I, W391A"}, "B7": {"name": "V268A: NTR point mutant (protein, UniProt P20789 1-424, looked up, variant V268A)", "Neurotensin receptor type 1": "B1 Neurotensin receptor type 1 with A116I, V268A"}, "B8": {"name": "N262A: NTR point mutant (protein, UniProt P20789 1-424, looked up, variant N262A)", "Neurotensin receptor type 1": "B1 Neurotensin receptor type 1 with A116I, N262A"}, "B9": {"name": "T207A: NTR point mutant (protein, UniProt P20789 1-424, looked up, variant T207A)", "Neurotensin receptor type 1": "B1 Neurotensin receptor type 1 with A116I, T207A"}, "B10": {"name": "A120L: NTR point mutant (protein, UniProt P20789 1-424, looked up, variant A120L)", "Neurotensin receptor type 1": "B1 Neurotensin receptor type 1 with A116I, A120L"}, "B11": {"name": "R392A: NTR point mutant (protein, UniProt P20789 1-424, looked up, variant R392A)", "Neurotensin receptor type 1": "B1 Neurotensin receptor type 1 with A116I, R392A"}, "B12": {"name": "S108A: NTR point mutant (protein, UniProt P20789 1-424, looked up, variant S108A)", "Neurotensin receptor type 1": "B1 Neurotensin receptor type 1 with S108A, A116I"}, "B13": {"name": "S362A: NTR point mutant (protein, UniProt P20789 1-424, looked up, variant S362A)", "Neurotensin receptor type 1": "B1 Neurotensin receptor type 1 with A116I, S362A"}, "B14": {"name": "P399A: NTR point mutant (protein, UniProt P20789 1-424, looked up, variant P399A)", "Neurotensin receptor type 1": "B1 Neurotensin receptor type 1 with A116I, P399A"}, "B15": {"name": "L72A: NTR point mutant (protein, UniProt P20789 1-424, looked up, variant L72A)", "Neurotensin receptor type 1": "B1 Neurotensin receptor type 1 with L72A, A116I"}, "B16": {"name": "A155L: NTR point mutant (protein, UniProt P20789 1-424, looked up, variant A155L)", "Neurotensin receptor type 1": "B1 Neurotensin receptor type 1 with A116I, A155L"}, "B17": {"name": "G209A: NTR point mutant (protein, UniProt P20789 1-424, looked up, variant G209A)", "Neurotensin receptor type 1": "B1 Neurotensin receptor type 1 with A116I, G209A"}, "B18": {"name": "A356L: NTR point mutant (protein, UniProt P20789 1-424, looked up, variant A356L)", "Neurotensin receptor type 1": "B1 Neurotensin receptor type 1 with A116I, A356L"}, "B19": {"name": "Y351A: NTR point mutant (protein, UniProt P20789 1-424, looked up, variant Y351A)", "Neurotensin receptor type 1": "B1 Neurotensin receptor type 1 with A116I, Y351A"}, "B20": {"name": "L205A: NTR point mutant (protein, UniProt P20789 1-424, looked up, variant L205A)", "Neurotensin receptor type 1": "B1 Neurotensin receptor type 1 with A116I, L205A"}, "B21": {"name": "L109A: NTR point mutant (protein, UniProt P20789 1-424, looked up, variant L109A)", "Neurotensin receptor type 1": "B1 Neurotensin receptor type 1 with L109A, A116I"}, "B22": {"name": "F189A: NTR point mutant (protein, UniProt P20789 1-424, looked up, variant F189A)", "Neurotensin receptor type 1": "B1 Neurotensin receptor type 1 with A116I, F189A"}, "B23": {"name": "T179A: NTR point mutant (protein, UniProt P20789 1-424, looked up, variant T179A)", "Neurotensin receptor type 1": "B1 Neurotensin receptor type 1 with A116I, T179A"}}, "experiment": "Thermostability of neurotensin receptor (NTR) mutants (3H-neurotensin binding)", "format": "physicochemical", "settings": "for thermostability, 3H-neurotensin (agonist) binding after the heating step: heated in the absence of the agonist; for thermostability, heated in the presence of 3H-neurotensin: Ligand(+) format", "procedure": "FIG. 12 Flow chart showing the two different assay formats of ligand (+) and ligand (−) used to determine receptor thermostablity.\n3. Mutants tested for thermostability by heating in the absence of the agonist were re-tested using a slightly different assay where the mutants were heated in the presence of ^3H-neurotensin (Ligand(+) format in FIG. 12). […] All of these also have increased thermostability. • 5. Preferred combinations are • a. Nag7m F358A+A86L+1260A+F342A Tm 51° C. (neurotensin bound) • b. Nag7n F358A+H103A+1260A+F342A Tm 51° C. (neurotensin bound) • Wildtype NTR has a Tm of 35° C. with neurotensin bound.", "note": "Numbering of substitutions follows the chain as printed. Names may count otherwise.", "data": [{"molecule": "B1", "values": [{"measurement": "thermostability, 3H-neurotensin (agonist) binding after the heating step", "value": "small but significant increase in thermostability"}]}, {"molecule": "B2", "values": [{"measurement": "thermostability, heated in the presence of 3H-neurotensin", "value": "improved thermostability"}, {"measurement": "thermostability, 3H-neurotensin (agonist) binding after the heating step", "value": "small but significant increase in thermostability"}]}, {"molecule": "B3", "values": [{"measurement": "thermostability, heated in the presence of 3H-neurotensin", "value": "improved thermostability"}, {"measurement": "thermostability, 3H-neurotensin (agonist) binding after the heating step", "value": "small but significant increase in thermostability"}]}, {"molecule": "B4", "values": [{"measurement": "thermostability, 3H-neurotensin (agonist) binding after the heating step", "value": "small but significant increase in thermostability"}]}, {"molecule": "B5", "values": [{"measurement": "thermostability, 3H-neurotensin (agonist) binding after the heating step", "value": "small but significant increase in thermostability"}]}, {"molecule": "B6", "values": [{"measurement": "thermostability, 3H-neurotensin (agonist) binding after the heating step", "value": "small but significant increase in thermostability"}]}, {"molecule": "B7", "values": [{"measurement": "thermostability, 3H-neurotensin (agonist) binding after the heating step", "value": "small but significant increase in thermostability"}]}, {"molecule": "B8", "values": [{"measurement": "thermostability, 3H-neurotensin (agonist) binding after the heating step", "value": "small but significant increase in thermostability"}]}, {"molecule": "B9", "values": [{"measurement": "thermostability, 3H-neurotensin (agonist) binding after the heating step", "value": "small but significant increase in thermostability"}]}, {"molecule": "B10", "values": [{"measurement": "thermostability, 3H-neurotensin (agonist) binding after the heating step", "value": "small but significant increase in thermostability"}]}, {"molecule": "B11", "values": [{"measurement": "thermostability, 3H-neurotensin (agonist) binding after the heating step", "value": "small but significant increase in thermostability"}]}, {"molecule": "B12", "values": [{"measurement": "thermostability, 3H-neurotensin (agonist) binding after the heating step", "value": "small but significant increase in thermostability"}]}, {"molecule": "B13", "values": [{"measurement": "thermostability, heated in the presence of 3H-neurotensin", "value": "improved thermostability"}, {"measurement": "thermostability, 3H-neurotensin (agonist) binding after the heating step", "value": "small but significant increase in thermostability"}]}, {"molecule": "B14", "values": [{"measurement": "thermostability, 3H-neurotensin (agonist) binding after the heating step", "value": "small but significant increase in thermostability"}]}, {"molecule": "B15", "values": [{"measurement": "thermostability, 3H-neurotensin (agonist) binding after the heating step", "value": "small but significant increase in thermostability"}]}, {"molecule": "B16", "values": [{"measurement": "thermostability, 3H-neurotensin (agonist) binding after the heating step", "value": "small but significant increase in thermostability"}]}, {"molecule": "B17", "values": [{"measurement": "thermostability, 3H-neurotensin (agonist) binding after the heating step", "value": "small but significant increase in thermostability"}]}, {"molecule": "B18", "values": [{"measurement": "thermostability, 3H-neurotensin (agonist) binding after the heating step", "value": "small but significant increase in thermostability"}]}, {"molecule": "B19", "values": [{"measurement": "thermostability, 3H-neurotensin (agonist) binding after the heating step", "value": "small but significant increase in thermostability"}]}, {"molecule": "B20", "values": [{"measurement": "thermostability, 3H-neurotensin (agonist) binding after the heating step", "value": "small but significant increase in thermostability"}]}, {"molecule": "B21", "values": [{"measurement": "thermostability, 3H-neurotensin (agonist) binding after the heating step", "value": "small but significant increase in thermostability"}]}, {"molecule": "B22", "values": [{"measurement": "thermostability, 3H-neurotensin (agonist) binding after the heating step", "value": "small but significant increase in thermostability"}]}, {"molecule": "B23", "values": [{"measurement": "thermostability, 3H-neurotensin (agonist) binding after the heating step", "value": "small but significant increase in thermostability"}]}]}
